In patent publication US20230002478A1 one finds Kd data, which are given here for 1 molecule.

What all share (assay): SPR
Details in all cases: remark: other sources report otherwise

For assay [1], the target named is SARS-CoV-2 S RBD (K417N) (SARS-CoV-2), P0DTC2.
In assay [2] the target is SARS-CoV-2 S RBD (N501Y) (SARS-CoV-2), P0DTC2.
The target in assay [3] is SARS-CoV-2 S RBD (Y453F) (SARS-CoV-2), P0DTC2.
Assay [4] has as its target SARS-CoV-2 S1 (D614G) (SARS-CoV-2), P0DTC2.
Assay [5] addresses SARS-CoV-2 S1 (HV69-70del, Y144del, N501Y, A570D, D614G, P681H) (SARS-CoV-2), P0DTC2.

B1: 6-63 (Fc fusion)
chain: EVQLVESGGGLVQPGGSLRLSCAASGQTFNMGWFRQAPGKEREFVAAIGSGGSTSYADSVKGRFTISADNSKNTAYLQMNSLKPEDTAVYYCWRLGNDYFDYWGQGTLVTVSS
As for B1, the Kd in assay [1] turned out to be 14 nM; in assay [2] it was 3.8 nM; in assay [3] it was 5.4 nM; in assay [4] it was 95 nM; in assay [5] it was 80 nM.

For orientation: Kd means the equilibrium constant for the complex coming apart. A high value points to weaker binding.
